Reference: the nanobody polyreactivity screen of Harvey et al. (2022)

Assay: yeast display, Sf9 membrane polyspecificity reagent, FACS + sequencing; frameworks hold sequencing errors
In short: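 Synthetic nanobody libraries on Saccharomyces cerevisiae BJ5465 were galactose-induced for 36–48 hours, stained 1 hour at 4 °C with 10% biotinylated, detergent-solubilized Sf9 membrane reagent and enriched on streptavidin microbeads. FACS then separated cells into low and high (top ~1%) gates by anti-HA (expression) and streptavidin (reagent binding) fluorescence. Genes were colony-PCR amplified, MiSeq 2 × 250 sequenced and CDR-length filtered. A clone's polyreactivity label is that of its gate of origin.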
For “QVQLVESGGGLVQAGGSLRLSCAASGGTFFSNAMGWYRQAPGKERELVAGITSGGRTYYADSVKGRFTISRDNAKNTVYLQMNSLKPEDTAVYYCATQSWVRYGQPEFDYWGQGTQVTVSS”, the “polyreactivity (PSR sort gate)” value was “high polyreactivity”. In the case of “QVQLVESGGGLVQAGGSLRLSCAASGGTFGQYAMGWYRLAPGKERELVAAITSSGGRTYYADSVKGRFTISRDNAKNTVYLQMNSLKPEDTAVYYCAADVQSRYVGEGDYWGQGTQVTVSS”, the “polyreactivity (PSR sort gate)” value is reported as “high polyreactivity”. With “QVQLVESGGGLVQAGGSLRLSCAASGGTFGRNAMGWYRQAPGKERELVATITRRGGSTYYADSVKGRFTISRDNAKNTVYLQMNSLKPEDTAVYYCAAAGRYSNGTGYGYWGQGTQVTVSS” the “polyreactivity (PSR sort gate)” value was “high polyreactivity”. For “QVQLVESGGGLVQAGGSLRLSCAASGGTFGSYARGWYRQAPGNEREFVAAIRRGTSTYYADSVQGRFTISRDNAKNTVYLQMNRLKPEDTEVYYCAATPQAHSERYYYQRKYDYWGQGTQVTVSS”, the “polyreactivity (PSR sort gate)” value was “low polyreactivity”. With “QVQLVESGGGLVQAGGSLRLSCAASGGTFGTNTMGWYRQAPGKERELVAAISKRGGRTYYADSVKGRFTISRDNAKNTVYLQMNSLKPEDTAVYYCAADTGGNPKYDYWGQGTQVTVSS” the “polyreactivity (PSR sort gate)” value was “high polyreactivity”. With “QVQLVESGGGLVQAGGSLRLSCAASGGTFGYYAMGWYRQAPGKERELVAAINRSDGGTYYADSVKGRFTISRDNAKNTVYLQMNSLKPEDTAVYYCNADDFYYDEPYDYWGQGTQVTVSS” the “polyreactivity (PSR sort gate)” value was “low polyreactivity”. For “QVQLVESGGGLVQAGGSLRLSCAASGGTFIANAMGWYRQAPGKERELVATINANADTTYYADSVKGRFTISRDNAKNTVYLQMNSLKPEDTAVYYCAAAQRYPIKYYYWGQGTQVTVSS”, the “polyreactivity (PSR sort gate)” value was “low polyreactivity”. In the case of “QVQLVESGGGLVQAGGSLRLSCAASGGTFKFYAMGWYRQAPGKERELVAAISRRGGNTYYADSVKGRFTISRDNAKNTVYLQMNSLKPEDTAVYYCAVDYRSTGFGYWGQGTQVTVSS”, the “polyreactivity (PSR sort gate)” value is reported as “high polyreactivity”. With “QVQLVESGGGLVQAGGSLRLSCAASGGTFLAYAMGWYRQAPGKERELVAAITRRGTRTYYADSVKGRFTISRDNANNTVYLQMNSLKPEDTAVYYCAVSGGFYWGQGTQVTVSS” the “polyreactivity (PSR sort gate)” value was “high polyreactivity”. For “QVQLVESGGGLVQAGGSLRLSCAASGGTFLGYAMGWYRQAPGKDRELVAAIAASGGNTYYADSVKGRFTISRDNAKNTVYLQMNSLKPEATAVYYGAARQYRSVLKYDYWGQGTQVTVSS”, the “polyreactivity (PSR sort gate)” value was “high polyreactivity”. In the case of “QVQLVESGGGLVQAGGSLRLSCAASGGTFLYYAMGWYRQAPGKETELVAAISRGGSTHYADSVKGRFTISRDNAKNTVYLQMNSLKPEDTAVYYCAVDGGEFSSYGYWGQGTQVTVSS”, the “polyreactivity (PSR sort gate)” value is reported as “low polyreactivity”. With “QVQLVESGGGLVQAGGSLRLSCAASGGTFPQYAKGWYRQAPGKEREFVADITTRGGTTYYADSVKGRFTISRDNAKNTVYLQMNSLKPEENAVYYCAADNPADWWGLDYWGQGTQVTVSS” the “polyreactivity (PSR sort gate)” value was “low polyreactivity”. For “QVQLVESGGGLVQAGGSLRLSCAASGGTFPRYAMGWYRQAPGKERELVAAISRSGGSTYYADSVKGRFTISRDNAKNTVYLQMNSLKPEDTAVYYCATGYSYIMDYWGQGTQVTVSS”, the “polyreactivity (PSR sort gate)” value was “high polyreactivity”. With “QVQLVESGGGLVQAGGSLRLSCAASGGTFPYNAMGWYRQAPGKERELVAVITSGDGTYYADSVKGRFTISRDNAKNTVYLQMNSLKPEDTAVYYCAADYVVWFSFVYVVEYDYWGQGTQVTVSS” the “polyreactivity (PSR sort gate)” value was “low polyreactivity”. In the case of “QVQLVESGGGLVQAGGSLRLSCAASGGTFQRYAMGWYRQAPGKERELVAAISSGGRTYYADSVKGRFTISRDNAKNTVYLQMNSLKAVDTAVYYCNAVGWTRYWRIGWSAYYYWGQGTQETVSS”, the “polyreactivity (PSR sort gate)” value is reported as “high polyreactivity”. In the case of “QVQLVESGGGLVQAGGSLRLSCAASGGTFQSNALGWYRQAPAKERELVASITSRGSSTYYADSVKGRFTISRDNAKNTVYLQMNSLKPEDTAVYYCAKGRSWQIYYKGGIKGGYWGQGTQVTVSS”, the “polyreactivity (PSR sort gate)” value is reported as “low polyreactivity”. For “QVQLVESGGGLVQAGGSLRLSCAASGGTFQSNAMGWYRQAPGKERELVASITSRGSSTYYADSVKGRFTISRDNAKNTFYLLMNSLKPEDTAVYYCAKGSSWQIYYKGGIKGGYWGQGTQVTVSS”, the “polyreactivity (PSR sort gate)” value was “low polyreactivity”. In the case of “QVQLVESGGGLVQAGGSLRLSCAASGGTFRANAMVWYRQAPGKERELVAAISFRGGTTYYADSVKGRFTISRDNAKTTVYLQMNSLKPEDTAVYYCAAGRRGSYYYWGQGTQVTVSS”, the “polyreactivity (PSR sort gate)” value is reported as “high polyreactivity”. For “QVQLVESGGGLVQAGGSLRLSCAASGGTFRLNAMGWYRQAPGKERELVATITRRGGSTYYADSVKGRFTISRDNAKNTVYLQMNSLKPEDTAVYYCAARDVYRGGLFDYWGQGTQVTVSS”, the “polyreactivity (PSR sort gate)” value was “high polyreactivity”. In the case of “QVQLVESGGGLVQAGGSLRLSCAASGGTFRVYAMGWYRQAPGKERELVAAISGGGRTYADSVKGRFTISRDNAKITVYLQMNSLKPEDTAVYYCNTRRYYRVTTVKRYDYWGQGTQVTVSS”, the “polyreactivity (PSR sort gate)” value is reported as “high polyreactivity”. In the case of “QVQLVESGGGLVQAGGSLRLSCAASGGTFRVYVMGLYRQATGKERELVAAISRGGGSTYYADSVKGRFTISRDNAKNTVYLQMNSLKPEDTAVYYCAARVWRYPWRASEYDYWGQGTQVTVSS”, the “polyreactivity (PSR sort gate)” value is reported as “high polyreactivity”. With “QVQLVESGGGLVQAGGSLRLSCAASGGTFSFYAMGWYRQAPGKEREFVAAITASDGSTYYADSVKGRFTSSRDNAKNTVYLQMNSLKPEDTAVYYCAADAYGYKFNSWGQGTQVTVSS” the “polyreactivity (PSR sort gate)” value was “low polyreactivity”. In the case of “QVQLVESGGGLVQAGGSLRLSCAASGGTFSGYTMGWYRQAPGKERELVAAINWSGGRTYYADSVKGRFTISRDNAKNTAYLQMNSLKPEDTAVYYSNKYGLYYREYDYWGQGTQVTVSS”, the “polyreactivity (PSR sort gate)” value is reported as “high polyreactivity”. In the case of “QVQLVESGGGLVQAGGSLRLSCAASGGTFSPYDMGWYRQAPGKERELVASITGSGGSTYYADSVKGRFTISRGNAKNTVYLQMNSLKPEETAVYYCAAQGYWTYWPYLLRLYDYWGQGTQVTVSS”, the “polyreactivity (PSR sort gate)” value is reported as “low polyreactivity”. In the case of “QVQLVESGGGLVQAGGSLRLSCAASGGTFSTNAMGWYRQAPGKERELVAAISLSGGRTYADSVKGRFTISRDNAKNTVYLQMNSLKPEDTAVYYCNADSAGITRARSELDYWGQGTQVTVSS”, the “polyreactivity (PSR sort gate)” value is reported as “low polyreactivity”. For “QVQLVESGGGLVQAGGSLRLSCAASGGTFSWYAMGWYRQAPGKERELVAAITARGGSTYYADSVKGRFTISRDNAKNTVYLQMNSLKPEDTAVYYCNKRTRSLVRYNSGGYSVGYWGQCTQVTVSS”, the “polyreactivity (PSR sort gate)” value was “high polyreactivity”. In the case of “QVQLVESGGGLVQAGGSLRLSCAASGGTFSYNAMGWYRQAPGKERELVAAISWSGTRTYYADSVKGRFTISRDNAKNTVYLQMNSLKPEDTAVYYCNKPPPNRGRYDYWGQGTQVTVSS”, the “polyreactivity (PSR sort gate)” value is reported as “low polyreactivity”. With “QVQLVESGGGLVQAGGSLRLSCAASGGTFTHYGMGWYRQAPGKERELVAAITWTASSTYYADSVKGRFTISRDNAKNTVYLQMNSLKPEDTAVYYCATSYYYWGHTYDYWGQGTQVTVSS” the “polyreactivity (PSR sort gate)” value was “low polyreactivity”. For “QVQLVESGGGLVQAGGSLRLSCAASGGTFTIYAMGWYRQAPGKERELVATINRGDRTNYADSVKGRFTISRDNAKNTVYLQMNSLKPEDTAVYYCAADFYYWYRGVYFVTRNYYWGQGTQVTVSS”, the “polyreactivity (PSR sort gate)” value was “high polyreactivity”. With “QVQLVESGGGLVQAGGSLRLSCAASGGTFVRYVMGWYRPAPGKERELVAAISGSGGSTYYADTVKGRFTISRDNAKNTVYLQMNSLKPEASAVYYCASVYYWSKFYYWGQGTQVTVSS” the “polyreactivity (PSR sort gate)” value was “high polyreactivity”. For “QVQLVESGGGLVQAGGSLRLSCAASGGTFVSNAMGWYRHAPGKERELVAAITTGGTTYADSVKGRFTISRDNAKNSVYLQMKSLKPEDSAVYYCAADIYLLILGRSILQFDYWGQGTQVTVSS”, the “polyreactivity (PSR sort gate)” value was “low polyreactivity”. In the case of “QVQLVESGGGLVQAGGSLRLSCAASGGTFVSYVMGWYRQAPGKEREWVAAISVSGGRTYYADSVKGRFTISRDNAKNTVYLQMNSLKPEDTAVYYCAADSVVVGSPGNDYWGQGTQVTVSS”, the “polyreactivity (PSR sort gate)” value is reported as “high polyreactivity”. In the case of “QVQLVESGGGLVQAGGSLRLSCAASGGTFVYSAMGWYRQAPGKERELVAAINWSGGSTYYADSVKGRFTISRDNAKNTVYLQMNILKAEDTAVLLLQRSGLRRSGVWFDYWGQGTQVTVSS”, the “polyreactivity (PSR sort gate)” value is reported as “low polyreactivity”. In the case of “QVQLVESGGGLVQAGGSLRLSCAASGGTFVYYAMGWYRQAPGKERELVAAITSRGTSTYYADSVKGRFTISRDNAKNTVYLQMNSLKPEDTAVYYCAAGTPRGILRNSSYNYWGQGTQVTVSS”, the “polyreactivity (PSR sort gate)” value is reported as “high polyreactivity”. In the case of “QVQLVESGGGLVQAGGSLRLSCAASGGTFVYYTMGWYRQAPGKERELVAAISGRGGRTYYADSVKGRFTISRDNAKNTVYLQMNSLKPEDTAVYYCTATQIGPYYLPFDSWGQGTQVTVSS”, the “polyreactivity (PSR sort gate)” value is reported as “high polyreactivity”. With “QVQLVESGGGLVQAGGSLRLSCAASGGTFWLYAMGWYRQAPGKEREFVAAISYSGGSTYYADSVKGRFTISRDHAKNTVYLQMNSLKPEDTAVYYCAASAYYLDYDYWGQGTQVTVSS” the “polyreactivity (PSR sort gate)” value was “high polyreactivity”. With “QVQLVESGGGLVQAGGSLRLSCAASGGTFWVNMGWYRQAPGKEREFVAAITWSAGSTYYADSVKGRFTISRDNAKNTVYLQMNSLKPEDTAVYYCAGGGGHYQEYLMEDYWGQGTQVTVSS” the “polyreactivity (PSR sort gate)” value was “high polyreactivity”. With “QVQLVESGGGLVQAGGSLRLSCAASGGTFWYYAMGWYRQAPGKEREFVAAISSRGGNTYYADSVKGRFTISRDNAKNTVYLQMNSLKPEDTAVYYCNAKTHRRYSENYYWGQGTQVTVSS” the “polyreactivity (PSR sort gate)” value was “high polyreactivity”. For “QVQLVESGGGLVQAGGSLRLSCAASGGTFYFYAMGWYRQAPGKERELVATITRGGSTYYADSVKGRFTISRDNAKNTVYLQMNSLKPEDTAVYYCAARQYSRRRSPVSTWYYYWGQGTQVTVSS”, the “polyreactivity (PSR sort gate)” value was “high polyreactivity”. With “QVQLVESGGGLVQAGGSLRLSCAASGGTFYINTMGWNRQAPGKERELVATITIVVSTKYADSVKGRFTISRDNAKNTVYLQMNSLNPEDTAVYYCAKDDVYRDSFLVFDGEMVYWGQGTQVTVSS” the “polyreactivity (PSR sort gate)” value was “low polyreactivity”. In the case of “QVQLVESGGGLVQAGGSLRLSCAASGGTFYPYAMGWYRQAPGKERELVAAISRGGGSTSYADSVKGRFTISRDNAQNTVYLQMNSLKPEDTAVYYSNAYTYYHANHEQGFGYWGQGTQVTVSS”, the “polyreactivity (PSR sort gate)” value is reported as “low polyreactivity”. With “QVQLVESGGGLVQAGGSLRLSCAASGGTFYRYAMGWYRQAPGKEMELVAAISSRGGSTYYADSVKGRFTISRDNAKNTVYLQMNSLKPEDTAVYYCAALFYLTPWQYDYWGQGTQVTVSS” the “polyreactivity (PSR sort gate)” value was “high polyreactivity”. In the case of “QVQLVESGGGLVQAGGSLRLSCAASGGTFYRYAMGWYRQAPGNERELVAAISSSGGRTYYADSVKGRFTISRDNAKNTVYVQMNSLKPEDTAVYYCNARYPRLHRTYNYWGQGTQVTVSS”, the “polyreactivity (PSR sort gate)” value is reported as “high polyreactivity”.
